# Source: article PMC7606108 (Acta Pharmaceutica Sinica. B, 2020)
# B1: Acetylcholinesterase, endogenous in macrophages (enzyme, UniProt P21836 32-614, looked up)
# chain: EGREDPQLLVRVRGGQLRGIRLKAPGGPVSAFLGIPFAEPPVGSRRFMPPEPKRPWSGVLDATTFQNVCYQYVDTLYPGFEGTEMWNPNRELSEDCLYLNVWTPYPRPASPTPVLIWIYGGGFYSGAASLDVYDGRFLAQVEGAVLVSMNYRVGTFGFLALPGSREAPGNVGLLDQRLALQWVQENIAAFGGDPMSVTLFGESAGAASVGMHILSLPSRSLFHRAVLQSGTPNGPWATVSAGEARRRATLLARLVGCPPGGAGGNDTELIACLRTRPAQDLVDHEWHVLPQESIFRFSFVPVVDGDFLSDTPEALINTGDFQDLQVLVGVVKDEGSYFLVYGVPGFSKDNESLISRAQFLAGVRIGVPQASDLAAEAVVLHYTDWLHPEDPTHLRDAMSAVVGDHNVVCPVAQLAGRLAAQGARVYAYIFEHRASTLTWPLWMGVPHGYEIEFIFGLPLDPSLNYTTEERIFAQRLMKYWTNFARTGDPNDPRDSKSPQWPPYTTAAQQYVSLNLKPLEVRRGLRAQTCAFWNRFLPKLLSATDTLDEAERQWKAEFHRWSSYMVHWKNQFDHYSKQERCSDL
# Target: the molecule itself
# Experiment: sucrose density gradient analysis
protein,measurement,value
B1,stoichiometry N,4
